From PMC4709722, “Flavone synthases from Lonicera japonica and L. macranthoides reveal differential flavone accumulation” (Scientific Reports, 2016)
Residue numbers refer to the chain shown, from its start. In names and notes the source's numbering stands.

B1: LmFNSII-1.1 (Lonicera macranthoides; V204M) (protein)
chain: MLIFDLTISFTTLLFLIFTTALLLKVFKKNHKLQPPPSPFTLPIIGHLHLLGPLIHQSFHRLSTLYGPLIQLKIGYIPCVVASTPELAKEFLKTHELAFSSRKHSAAIKLLTYDVSFAFAPYGPYWKFIKKTCTFELLGTRNMNHFLPIRTNEIRRFLQVMLEKAKASEGVNVTEELIKLTNNVISQMMFSTRSSGTEGEAEEMRTLVREVTQIFGEFNVSDFIKLCKNIDIGGFKKRSEDIQKRYDALLEKIISERESERARRGKNRETLGEEGGKDFLDMMLDTMEDGKCEVEITRDHIKALVLDFLTAATDTTAIAVEWTLAELISNPEVFDKAREEIDKVVGKHRLVTELDTPNLPYIHAIIKESFRLHPPIPLVIRKSVQDCTVGGYHISANTILFINIWAIGRNPKYWESPMKFWPERFLESNEPGSVGSTDIKGHHYELLPFGSGRRGCPGMALAMQELPVVLAAMIQCFNWKPVTLDGEELDMSERPGLTAPRAHDLVCVPSARINSFDNF
B2: LmFNSII-1.1 (Lonicera macranthoides) (protein)
chain: B1 chain with M204V
B3: LjFNSII-1.1 (Lonicera japonica; S122A) (protein)
chain: MWIFDLTISFTTLLFLIFTTALLLLLKVFKKNHKLRPPPSPFTLPIIGHLHLLGPLIHQSFHRLSTLYGPLIQLKIGYIPCVVASTPELAKEFLKTHELAFSSRKHSAAIKLLTYDVSFAFAPYGPYWKFIKKTCTFELLGTRNMNHFLPIRTNEIRRFLQVMLEKAKASEGVNVTEELIKLTNNVISQMMFSTRSSGTEGEAEEMRTLVREVTQIFGEFNVSDFIKLCKNIDIGGFKKRSKDIQKRYDALLEKIISERESERARRGKNRETLGEEGGKDFLDMMLDTMEDGKCEVEITRDHIKALVLDFLTAATDTTAIAVEWTLAELISNPEVFDKAREEIDKVVGKHRLVTELDTPNLPYIHAIIKESFRLHPPIPLLIRKSVQDCTVGGYHISANTILFVNIWAIGRNPKYWESPMKFWPERFLESNGPGPVGSMDIKGHHYELLPFGSGRRGCPGMALAMQELPVVLAAMIQCFNWKPVTLDGEELDMSERPGLTAPRAHDLVCVPSARINSFDNF
B4: LjFNSII-1.1 (Lonicera japonica) (protein)
chain: B3 chain with A122S
B5: LjFNSII-2.1 (Lonicera japonica) (protein)
chain: B3 chain with A122S, K242E

What was measured:
Test in all cases: cells, lysate or membranes
[1] = substrate: O=C1C[C@@H](c2ccc(O)c(O)c2)Oc2cc(O)cc(O)c21; details: NADPH, potassium phosphate, product luteolin
[2] = substrate: O=C1C[C@@H](c2ccc(O)cc2)Oc2cc(O)cc(O)c21; details: apparent Km; NADPH, potassium phosphate, optimized conditions (about pH 7.5, 37 °C); product apigenin; pH 7.5; 37.0 °C
[3] = substrate: O=C1C[C@@H](c2ccc(O)cc2)Oc2cc(O)ccc21; details: apparent Km; NADPH, potassium phosphate, optimized conditions (about pH 7.5, 37 °C); product 7,4'-dihydroxyflavone; pH 7.5; 37.0 °C
[4] = apparent Km, optimized conditions (about pH 7.5, 37 °C), pH 7.5, 37.0 °C

Protein | Km ([1]; optimized conditions) | kcat ([1]; optimized conditions) | Km [1, 4] | Vmax [1, 4] | kcat [1, 4] | kcat/Km [1, 4] | Km [2] | Vmax [2] | kcat [2] | kcat/Km [2] | Km [3] | Vmax [3] | kcat [3] | kcat/Km [3]
B1 | 8.47 ± 0.52 µM | 5.08 ± 0.30 s⁻¹ | – | – | – | – | – | – | – | – | – | – | – | –
B2 | – | – | 3.09 (0.17) μM | 0.0462 µM/min | 0.44 s⁻¹ | 142000 M⁻¹ s⁻¹ | 1.63 (0.12) μM | 0.021 µM/min | 0.2 s⁻¹ | 122000 M⁻¹ s⁻¹ | 2.38 (0.07) μM | 0.0738 µM/min | 0.7 s⁻¹ | 295000 M⁻¹ s⁻¹
B3 | 10.53 ± 1.18 µM | 6.08 ± 0.5 s⁻¹ | – | – | – | – | – | – | – | – | – | – | – | –
B4 | – | – | 5.07 (0.05) μM | 0.267 µM/min | 2.56 s⁻¹ | 504000 M⁻¹ s⁻¹ | 9.93 (0.64) μM | 0.166 µM/min | 1.59 s⁻¹ | 160000 M⁻¹ s⁻¹ | 6.48 (0.26) μM | 0.461 µM/min | 4.41 s⁻¹ | 681000 M⁻¹ s⁻¹
B5 | – | – | 2.05 (0.04) μM | 0.0984 µM/min | 0.94 s⁻¹ | 460000 M⁻¹ s⁻¹ | 1.63 (0.06) μM | 0.0288 µM/min | 0.28 s⁻¹ | 170000 M⁻¹ s⁻¹ | 2.56 (0.03) μM | 0.124 µM/min | 1.18 s⁻¹ | 462000 M⁻¹ s⁻¹
